Literature values in patent US20190076452A1, “THERAPEUTIC COMBINATIONS FOR TREATING NEOPLASIA” (MEDIMMUNE LIMITED, priority 2014, published 2019).

Tested on: advanced melanoma
Settings: compared to the standard of care (temozolomide or dacarbazine); cited from earlier work

B1: tremelimumab: human IgG2 monoclonal antibody highly selective for CTLA-4 (antibody)
VH: GVVQPGRSLRLSCAASGFTFSSYGMHWVRQAPGKGLEWVAVIWYDGSNKYYADSVKGRFTISRDNSKNTLYLQMNSLRAEDTAVYYCARDPRGATLYYYYYGMDVWGQGTTVTVSSASTKGPSVFPLAPCSRSTSESTAALGCLVKDYFPEPVTVSWNSGALTSGVH
VL: PSSLSASVGDRVTITCRASQSINSYLDWYQQKPGKAPKLLIYAASSLQSGVPSRFSGSGSGTDFTLTISSLQPEDFATYYCQQYYSTPFTFGPGTKVEIKRTVAAPSVFIFPPSDEQLKSGTASVVCLLNNFYPREAKV
- overall survival of patients: did not significantly increase
